# Source: the supplement of paper PMC10065799, “High-throughput profiling of sequence recognition by tyrosine kinases and SH2 domains using bacterial peptide display” (eLife, 2023)
# Columns and labels:
# AncSZ = experiment: phosphorylation enrichment, bacterial display (enrichment ratio); higher = better substrate or ligand; peptides without Tyr show the background
# EPHB1 = EPHB1 (UniProt P54762); experiment: as above
# EPHB2 = EPHB2 (UniProt P29323); experiment: as above
# FGFR1 = FGFR1 (UniProt P11362); experiment: as above
# FGFR3 = FGFR3 (UniProt P22607); experiment: as above
# Fer (mouse) = experiment: as above
# Fes = Fes (UniProt P07332); experiment: as above
# Fyn = Fyn (UniProt P06241); experiment: as above
# Hck = Hck (UniProt P08631); experiment: as above
# Jak2 = Jak2 (UniProt O60674); experiment: as above
# MERTK = MERTK (UniProt Q12866); experiment: as above
# c-Abl (mouse) = experiment: as above
# c-Src = experiment: as above
# Grb2 SH2 = Grb2 SH2 (UniProt P62993); experiment: SH2 binding enrichment of the phosphorylated peptide, bacterial display (enrichment ratio); higher = better substrate or ligand; peptides without Tyr show the background
# SHP2-C SH2 = experiment: as above
# c-Src SH2 = experiment: as above
# 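Wherever SH2 binding enrichment of the phosphorylated peptide, bacterial display is given: peptide library displayed on the E. coli surface as eCPX fusions, selected cells deep-sequenced, score is each peptide's frequency after selection divided by its frequency in the input.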
# 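Wherever phosphorylation enrichment, bacterial display is given: 11-residue human phosphosite peptides and single-mutation variants displayed on the E. coli surface, counted by deep sequencing, each peptide's frequency after selection divided by its frequency in the unselected input library; frequency after pTyr selection over input frequency; kinase dosed for 20-30% of maximal phosphorylation in three min.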
# FGFR3, sequence (P22607 whole entry, looked up): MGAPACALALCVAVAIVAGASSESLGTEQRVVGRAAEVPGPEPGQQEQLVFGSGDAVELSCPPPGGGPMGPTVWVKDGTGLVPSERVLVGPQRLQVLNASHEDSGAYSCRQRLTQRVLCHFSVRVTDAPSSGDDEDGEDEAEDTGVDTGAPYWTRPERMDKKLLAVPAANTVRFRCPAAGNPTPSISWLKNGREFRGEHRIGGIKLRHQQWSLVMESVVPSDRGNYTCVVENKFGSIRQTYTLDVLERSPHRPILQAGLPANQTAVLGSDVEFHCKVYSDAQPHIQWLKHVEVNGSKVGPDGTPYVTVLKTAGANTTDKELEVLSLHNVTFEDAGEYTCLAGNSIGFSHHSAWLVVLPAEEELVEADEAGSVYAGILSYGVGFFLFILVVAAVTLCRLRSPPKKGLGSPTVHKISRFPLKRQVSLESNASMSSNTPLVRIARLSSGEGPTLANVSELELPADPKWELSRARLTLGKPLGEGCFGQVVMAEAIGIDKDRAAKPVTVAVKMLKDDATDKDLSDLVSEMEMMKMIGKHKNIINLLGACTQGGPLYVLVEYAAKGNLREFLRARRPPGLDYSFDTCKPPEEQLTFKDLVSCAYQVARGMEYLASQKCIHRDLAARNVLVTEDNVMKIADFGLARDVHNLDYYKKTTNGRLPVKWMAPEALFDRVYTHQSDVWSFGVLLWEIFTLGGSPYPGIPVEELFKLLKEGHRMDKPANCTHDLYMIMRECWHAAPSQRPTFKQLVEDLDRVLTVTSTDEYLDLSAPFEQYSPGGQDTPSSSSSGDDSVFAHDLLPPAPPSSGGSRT
# MERTK, sequence (Q12866 whole entry, looked up): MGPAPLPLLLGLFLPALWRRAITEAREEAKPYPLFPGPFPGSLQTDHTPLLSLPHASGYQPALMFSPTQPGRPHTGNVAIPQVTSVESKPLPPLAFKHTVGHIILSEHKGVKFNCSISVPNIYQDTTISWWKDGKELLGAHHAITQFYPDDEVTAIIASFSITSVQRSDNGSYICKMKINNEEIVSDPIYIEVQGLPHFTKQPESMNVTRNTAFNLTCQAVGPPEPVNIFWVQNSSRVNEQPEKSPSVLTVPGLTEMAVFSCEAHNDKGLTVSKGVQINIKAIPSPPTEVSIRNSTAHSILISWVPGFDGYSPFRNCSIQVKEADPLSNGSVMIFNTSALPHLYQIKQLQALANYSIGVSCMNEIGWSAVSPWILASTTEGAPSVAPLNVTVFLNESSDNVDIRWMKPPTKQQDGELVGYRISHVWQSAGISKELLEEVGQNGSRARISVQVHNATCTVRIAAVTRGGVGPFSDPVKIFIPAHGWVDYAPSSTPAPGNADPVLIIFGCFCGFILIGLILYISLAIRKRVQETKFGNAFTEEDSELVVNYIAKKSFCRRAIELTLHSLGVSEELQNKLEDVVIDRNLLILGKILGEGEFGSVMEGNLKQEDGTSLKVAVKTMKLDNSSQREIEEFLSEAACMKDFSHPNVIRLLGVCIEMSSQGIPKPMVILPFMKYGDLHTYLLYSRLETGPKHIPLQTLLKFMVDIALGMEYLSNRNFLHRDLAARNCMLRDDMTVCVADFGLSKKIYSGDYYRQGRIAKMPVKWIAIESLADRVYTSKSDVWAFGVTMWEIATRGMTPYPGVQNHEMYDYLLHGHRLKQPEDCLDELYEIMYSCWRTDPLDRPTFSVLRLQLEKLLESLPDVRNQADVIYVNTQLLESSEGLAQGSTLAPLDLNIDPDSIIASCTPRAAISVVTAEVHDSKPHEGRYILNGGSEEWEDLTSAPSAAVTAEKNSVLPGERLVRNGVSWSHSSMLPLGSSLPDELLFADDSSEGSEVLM
# Jak2, sequence (O60674 whole entry, looked up): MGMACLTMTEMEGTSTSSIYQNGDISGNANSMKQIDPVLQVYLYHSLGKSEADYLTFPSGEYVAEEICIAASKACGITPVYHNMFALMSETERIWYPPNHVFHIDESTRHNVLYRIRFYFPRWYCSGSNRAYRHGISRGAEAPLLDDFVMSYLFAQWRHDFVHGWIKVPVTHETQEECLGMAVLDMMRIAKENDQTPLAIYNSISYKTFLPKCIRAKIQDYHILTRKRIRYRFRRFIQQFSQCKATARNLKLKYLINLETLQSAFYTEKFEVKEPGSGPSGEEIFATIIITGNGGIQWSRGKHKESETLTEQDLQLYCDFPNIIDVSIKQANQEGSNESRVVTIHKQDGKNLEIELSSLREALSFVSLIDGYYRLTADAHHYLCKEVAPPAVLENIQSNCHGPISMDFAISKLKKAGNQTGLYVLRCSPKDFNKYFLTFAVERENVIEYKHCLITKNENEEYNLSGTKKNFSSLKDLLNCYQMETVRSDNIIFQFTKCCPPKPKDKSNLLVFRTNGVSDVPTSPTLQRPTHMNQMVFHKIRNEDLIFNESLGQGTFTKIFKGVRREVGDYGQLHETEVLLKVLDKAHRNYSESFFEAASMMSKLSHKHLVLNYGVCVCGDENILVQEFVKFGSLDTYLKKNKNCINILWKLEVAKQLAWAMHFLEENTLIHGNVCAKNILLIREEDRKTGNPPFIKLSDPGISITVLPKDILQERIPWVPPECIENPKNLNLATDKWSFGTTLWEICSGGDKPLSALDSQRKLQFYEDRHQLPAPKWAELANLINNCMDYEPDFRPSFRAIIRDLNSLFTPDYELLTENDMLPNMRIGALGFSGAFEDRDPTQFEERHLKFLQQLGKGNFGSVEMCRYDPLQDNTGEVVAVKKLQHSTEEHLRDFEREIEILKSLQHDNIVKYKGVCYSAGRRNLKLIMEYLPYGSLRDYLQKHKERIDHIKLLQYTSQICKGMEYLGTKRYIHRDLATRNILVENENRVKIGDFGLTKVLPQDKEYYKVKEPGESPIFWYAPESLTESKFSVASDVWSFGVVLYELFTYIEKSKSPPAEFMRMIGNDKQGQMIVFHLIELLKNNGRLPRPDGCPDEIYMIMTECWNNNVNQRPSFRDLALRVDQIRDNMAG
# FGFR1, sequence (P11362 whole entry, looked up): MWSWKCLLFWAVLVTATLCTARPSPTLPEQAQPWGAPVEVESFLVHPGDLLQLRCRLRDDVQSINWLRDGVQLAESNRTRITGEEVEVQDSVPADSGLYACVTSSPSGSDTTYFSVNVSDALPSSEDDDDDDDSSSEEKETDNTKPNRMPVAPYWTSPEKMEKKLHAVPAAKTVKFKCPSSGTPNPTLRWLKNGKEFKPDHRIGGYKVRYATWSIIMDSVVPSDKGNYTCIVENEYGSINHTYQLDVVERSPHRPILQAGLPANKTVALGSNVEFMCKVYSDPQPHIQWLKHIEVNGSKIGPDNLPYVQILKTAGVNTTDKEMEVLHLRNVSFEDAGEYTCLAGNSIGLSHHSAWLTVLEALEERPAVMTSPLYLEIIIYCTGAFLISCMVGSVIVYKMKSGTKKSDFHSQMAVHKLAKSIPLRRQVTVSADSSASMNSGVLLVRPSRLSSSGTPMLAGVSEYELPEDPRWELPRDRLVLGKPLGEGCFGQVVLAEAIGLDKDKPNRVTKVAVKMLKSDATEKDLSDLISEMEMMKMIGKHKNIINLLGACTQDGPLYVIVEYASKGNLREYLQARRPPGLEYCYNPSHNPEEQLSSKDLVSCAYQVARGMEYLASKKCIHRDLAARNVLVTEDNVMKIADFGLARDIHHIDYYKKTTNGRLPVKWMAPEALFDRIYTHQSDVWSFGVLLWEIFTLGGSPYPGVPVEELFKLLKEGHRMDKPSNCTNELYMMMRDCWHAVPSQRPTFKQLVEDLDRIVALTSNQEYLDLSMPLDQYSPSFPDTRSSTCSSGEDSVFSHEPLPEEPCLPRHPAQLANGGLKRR
# EPHB2, sequence (P29323 whole entry, looked up): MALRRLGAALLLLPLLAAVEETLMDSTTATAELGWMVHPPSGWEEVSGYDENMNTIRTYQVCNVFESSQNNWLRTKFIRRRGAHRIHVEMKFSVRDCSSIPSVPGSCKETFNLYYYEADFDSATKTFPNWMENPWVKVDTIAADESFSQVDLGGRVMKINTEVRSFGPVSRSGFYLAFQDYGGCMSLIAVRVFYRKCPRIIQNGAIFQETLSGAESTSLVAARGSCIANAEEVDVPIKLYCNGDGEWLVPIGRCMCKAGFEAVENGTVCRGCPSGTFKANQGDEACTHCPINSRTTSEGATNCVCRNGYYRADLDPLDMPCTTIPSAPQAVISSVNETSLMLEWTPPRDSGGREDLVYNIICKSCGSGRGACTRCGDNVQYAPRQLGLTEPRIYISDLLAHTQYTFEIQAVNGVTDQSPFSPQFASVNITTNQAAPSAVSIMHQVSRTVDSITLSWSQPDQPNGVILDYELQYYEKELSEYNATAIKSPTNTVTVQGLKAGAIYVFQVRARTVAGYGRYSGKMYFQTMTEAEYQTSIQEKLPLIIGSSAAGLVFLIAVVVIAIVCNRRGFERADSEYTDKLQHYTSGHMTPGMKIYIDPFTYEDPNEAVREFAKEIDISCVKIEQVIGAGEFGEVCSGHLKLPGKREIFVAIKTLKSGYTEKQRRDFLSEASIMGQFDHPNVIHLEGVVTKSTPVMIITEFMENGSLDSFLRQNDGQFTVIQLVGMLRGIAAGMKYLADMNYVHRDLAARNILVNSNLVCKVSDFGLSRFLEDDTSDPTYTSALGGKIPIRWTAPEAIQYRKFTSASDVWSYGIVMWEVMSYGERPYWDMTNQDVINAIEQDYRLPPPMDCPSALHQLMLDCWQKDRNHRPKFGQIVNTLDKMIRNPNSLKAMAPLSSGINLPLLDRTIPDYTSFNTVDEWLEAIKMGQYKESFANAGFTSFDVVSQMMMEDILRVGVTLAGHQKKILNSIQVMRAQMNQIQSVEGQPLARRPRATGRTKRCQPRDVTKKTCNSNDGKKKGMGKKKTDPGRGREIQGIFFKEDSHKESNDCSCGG
# Grb2 SH2, sequence (P62993 whole entry, looked up): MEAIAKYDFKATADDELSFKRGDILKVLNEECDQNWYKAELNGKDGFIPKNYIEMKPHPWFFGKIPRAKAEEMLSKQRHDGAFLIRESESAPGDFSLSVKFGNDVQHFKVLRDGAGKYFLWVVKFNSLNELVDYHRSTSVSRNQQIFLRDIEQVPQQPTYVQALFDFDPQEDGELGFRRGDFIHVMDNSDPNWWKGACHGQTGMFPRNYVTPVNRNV
Sequence,phosphorylation enrichment (AncSZ),phosphorylation enrichment (EPHB1),phosphorylation enrichment (EPHB2),phosphorylation enrichment (FGFR1),phosphorylation enrichment (FGFR3),phosphorylation enrichment (Fer (mouse)),phosphorylation enrichment (Fes),phosphorylation enrichment (Fyn),phosphorylation enrichment (Hck),phosphorylation enrichment (Jak2),phosphorylation enrichment (MERTK),phosphorylation enrichment (c-Abl (mouse)),phosphorylation enrichment (c-Src),SH2 binding enrichment (Grb2 SH2),SH2 binding enrichment (SHP2-C SH2),SH2 binding enrichment (c-Src SH2)
GFQPEYGQPAG [SYP_Y278_D277E_YF],0.685,0.501,0.542,0.479,0.917,0.506,0.741,0.592,0.4,0.723,0.424,0.586,0.671,0.788,0.832,0.405
IIGNGYYFHVF [MYBPC3_Y1135_R1138H],0.946,0.518,0.559,0.587,0.803,0.491,1.22,0.349,0.396,1.19,0.288,0.667,0.362,0.834,0.81,0.542
RGESFYQDTMN [RARS_Y338_R341T],1.02,2.62,1.63,0.695,0.888,1.79,0.98,0.634,0.429,0.941,1.02,1.03,0.602,0.98,0.807,0.694
IQKKYYRAILE [CHD7_Y1218],0.649,0.396,0.586,0.424,0.485,0.384,0.761,0.407,0.432,0.563,0.341,0.468,0.324,0.976,0.636,0.637
LSGVIYVILWK [PMP22_Y153_R157W],1.44,0.809,0.538,0.358,0.652,0.583,1.95,0.304,0.538,1.55,0.666,0.996,0.752,1.45,0.99,0.595
KKLAEYGPQGK [CLCA1_Y147_R152K],0.361,0.334,0.324,0.369,0.295,0.326,0.498,0.401,0.401,0.366,0.273,0.427,0.348,0.769,0.609,0.491
MNLLGYRQVRS [CHST4_Y359_H361Q],0.693,0.439,0.448,0.399,0.614,0.359,0.72,0.468,0.45,0.566,0.438,0.679,0.411,0.686,0.481,0.515
GGMAEYTRLHN [EHHADH_Y4],0.609,0.494,0.374,0.382,0.442,0.359,0.597,0.32,0.451,0.691,0.378,0.532,0.421,0.864,0.742,1.29
VQSASYLNDCL [MCM3AP_Y864_A867D],0.788,0.536,0.602,0.757,0.712,0.487,0.97,0.448,0.502,0.798,0.447,0.693,0.422,2.03,0.875,0.572
EPSVPYRGMVF [GLI3_Y104_T107M],0.704,0.43,0.56,0.422,0.508,0.38,0.816,0.413,0.376,0.639,0.432,0.471,0.462,0.804,0.567,0.414
IGEGTYGQVYK [CDK13_Y716],0.605,0.889,1.59,0.553,0.508,0.813,0.822,13.5,11.8,0.822,0.714,0.593,9.38,0.667,0.944,0.471
GPSTPYTKSKC [SMARCC2_Y324_R329C],0.584,0.35,0.408,0.362,0.479,0.393,0.534,0.403,0.395,0.573,0.396,0.55,0.36,1.24,1.06,0.76
DGTGHYLCNAC [GATA5_Y208],0.625,0.61,0.445,0.456,0.416,0.458,0.763,0.396,0.45,0.681,0.398,0.595,0.421,0.83,0.658,0.45
FGDTPYIPFRD [CDC14C_Y132],0.764,0.495,0.458,0.522,0.662,0.542,0.905,0.55,0.54,0.646,0.445,0.589,0.781,0.809,0.757,0.602
GPIEVYLCPEE [E2F3_Y349],1.18,0.696,0.533,0.462,0.743,0.458,1.08,0.525,0.549,1.29,0.437,0.724,0.683,0.817,0.754,0.541
RNGNRYFKGIV [DCX_Y64_D62N],1.33,0.516,0.51,0.578,0.513,0.6,0.607,0.42,0.527,1.02,0.701,0.799,0.846,0.602,0.726,0.509
LALTVYADCLA [ABCA4_Y2063_G2059A],1.42,1.08,0.938,0.665,1.05,0.781,1.48,0.699,0.73,1.53,0.517,1.09,0.62,0.624,0.508,0.572

Sequence,phosphorylation enrichment (AncSZ),phosphorylation enrichment (EPHB1),phosphorylation enrichment (EPHB2),phosphorylation enrichment (FGFR1),phosphorylation enrichment (FGFR3),phosphorylation enrichment (Fer (mouse)),phosphorylation enrichment (Fes),phosphorylation enrichment (Fyn),phosphorylation enrichment (Hck),phosphorylation enrichment (Jak2),phosphorylation enrichment (MERTK),phosphorylation enrichment (c-Abl (mouse)),phosphorylation enrichment (c-Src),SH2 binding enrichment (Grb2 SH2),SH2 binding enrichment (SHP2-C SH2),SH2 binding enrichment (c-Src SH2)
LTNDRYVATLT [IL6ST_Y396_L397V],0.683,0.607,0.72,0.619,0.82,0.408,0.791,0.576,0.394,0.808,0.622,0.434,0.69,0.764,0.527,0.537
DLDTDYGSGFP [RNASEH2A_Y206_YF],1.22,0.585,0.443,0.447,0.588,0.465,0.978,0.45,0.49,0.979,0.38,0.673,0.511,0.589,0.592,0.404
RGVTRYIYNRE [HLA-DQB1_Y62_Y58G],1.34,0.912,0.547,0.809,0.619,0.768,1.16,0.96,0.97,1.25,0.865,1,0.953,0.802,0.756,0.527
SPFAVYRFFTF [RPGRIP1_Y826_YF],1.22,0.501,0.519,0.637,0.798,0.496,1.33,0.68,0.867,1.08,0.45,0.961,0.91,0.689,0.729,0.462
TFYQMYDKGLV [IARS2_Y231],1.38,2.49,3.66,0.986,1.25,1.33,0.916,3.3,3.46,0.797,7.11,0.91,3.71,0.941,1.29,0.838
DPADRYLTEQY [CDKL5_Y286_C291Y],0.899,0.398,0.487,0.454,0.597,0.39,1.15,0.478,0.497,0.965,0.402,0.806,0.477,1,0.944,0.429
EEEPVYEAEPE [HCLS1_Y360],1.49,0.664,0.712,0.646,0.84,0.655,1.42,0.765,0.73,1.38,0.72,1.14,0.851,0.831,0.716,0.542
ESTPLYPMLFG [SCLY_Y280_F276S],0.768,0.686,0.508,11.7,8.03,0.507,0.969,0.6,0.503,1.09,2.23,0.619,0.47,0.931,0.891,0.554
IGKAGYTDKMV [ENO1_Y236_V240M],0.523,0.445,0.352,0.377,0.367,0.3,0.545,0.33,0.376,0.52,0.372,0.407,0.336,0.82,1.47,0.513
INMKEYCKKDY [NTN1_Y490_K489E],0.824,0.461,0.462,0.447,0.595,0.615,0.944,0.451,0.477,1.29,0.364,0.661,0.429,0.723,0.501,0.498
LARHMYDKEFF [MET_Y1230_D1228H_YF],0.78,0.355,0.438,0.606,0.55,0.29,1.08,0.404,0.399,0.646,0.559,0.524,0.688,0.7,0.65,0.546
PVDVAYRHGYF [PLEC_Y2967_R2969H],1.71,0.752,1.48,0.863,1.1,0.543,1.05,0.536,0.695,1.9,0.687,1.4,0.905,1.21,0.701,0.611
HSHTRYERNIE [F2_Y434_R431H],0.766,0.67,0.387,0.62,0.555,0.655,0.85,0.446,0.477,0.47,0.5,0.694,0.795,1.2,1.12,0.843
DNKALYDICFR [TUBB3_Y208_E205K],1.38,2.95,2.23,0.612,0.853,4.5,1.26,2.6,4.34,1.18,7.18,1.41,3.21,0.739,0.641,0.541
DVSKEYGHLLP [HRC_Y99],0.852,0.743,0.608,0.551,0.833,0.656,1.09,0.624,0.801,0.687,0.59,0.747,0.836,0.76,0.581,0.425
KWKQKYEESQS [MYH6_Y1462_E1457K],0.671,0.508,0.52,0.431,0.693,0.405,0.887,0.481,0.531,0.85,0.431,0.73,0.38,1.35,1.09,1.04
